Measured values from article PMC4337903, “Simian Virus Large T Antigen Interacts with the N-Terminal Domain of the 70 kD Subunit of Replication Protein A in the Same Mode as Multiple DNA Damage Response Factors” (PLoS ONE, 2015).

B1: GST-RPA70N (N-terminal domain of the 70 kDa subunit of Replication Protein A, residues 1-120) (domain or fragment, UniProt P27694 1-120, looked up)
chain: MVGQLSEGAIAAIMQKGDTNIKPILQVINIRPITTGNSPPRYRLLMSDGLNTLSSFMLATQLNPLVEEEQLSSNCVCQIHRFIVNTLKDGRRVVILMELEVLKSAEAVGVKIGNPVPYNE
notes: also called GST-RPA70N WT; source: Rosetta 2 cells, purified (glutathione agarose)

Key:
[1] = biological target: RPA70N (aa 1-120 of RPA70) used for ITC and NMR (UniProt P27694); test: ITC; 10 μl injections of 336 μM Tag(84-130) into 60 μM RPA70N in the cell; 25 mM Tris-Cl pH 7.5, 100 mM NaCl; single site model; average of three trials
[2] = biological target: T1, Simian virus 40 Large T-antigen (Tag), full length (Simian virus 40 (SV40), UniProt P03070 1-708); test: pull-down; GST-RPA70N (WT or R41/43E) or GST on glutathione beads, purified full-length Tag as prey; 4°C, 30 mM HEPES KOH pH 7.8, 10 mM KCl, 7 mM MgCl2, 10 μM ZnCl2, 2% non-fat dry milk; washes with 75 mM KCl; blot with pAb101 and anti-GST; also without antibody or after pre-incubation of Tag with control non-immune IgG; settings: both partners purified
T1 construct: SV40 Large T antigen, full length; The methods tell the removal of GST from full-length Tag for 'ITC and NMR studies'; for the pull-down the legend says only 'purified as described in Materials and Methods'; also called Large Tumor Antigen; full-length Tag; source: Rosetta 2 cells, GST-tagged, purified (glutathione agarose), treated with H3C PreScission protease

Row | Molecule | Kd [1] [nM] | binding result [2]
1 | Tag(84-130), GST removed (domain or fragment) | 1280 | 
2 | B1 |  | binds
